Test results taken from patent US11325966.

Assays:
Assay in all cases: cell-based or functional assay
[1] = target: HIV-1 Env of pseudovirus CNE52 (HIV-1)
[2] = target: HIV-1 Env of pseudovirus P0402_c2_11 (HIV-1)
[3] = target: HIV-1 Env of pseudovirus Ce1086_B2 (HIV-1)
[4] = target: HIV-1 Env of pseudovirus ZM197M.PB7 (HIV-1)
[5] = target: HIV-1 Env of pseudovirus 1006_11_C3_1601 (HIV-1)
[6] = target: HIV-1 Env of pseudovirus Ce1176_A3 (HIV-1)
[7] = target: HIV-1 Env of pseudovirus 6952.v1.c20 (HIV-1)
[8] = target: HIV-1 Env of pseudovirus MS208.A1 (HIV-1)
[9] = target: HIV-1 Env of pseudovirus X2088_c9 (HIV-1)
[10] = target: HIV-1 Env of pseudovirus Ce2060_G9 (HIV-1)
[11] = target: HIV-1 Env of pseudovirus 191084 B7-19 (HIV-1)
[12] = target: HIV-1 Env of pseudovirus C2101.c01 (HIV-1)
[13] = target: HIV-1 Env of pseudovirus REJO4541.67 (HIV-1)
[14] = target: HIV-1 Env of pseudovirus SC05_8C11_2344 (HIV-1)
[15] = target: HIV-1 Env of pseudovirus T255-34 (HIV-1)
[16] = target: HIV-1 Env of pseudovirus 3016.v5.c45 (HIV-1)
[17] = target: HIV-1 Env of pseudovirus 6244_13_B5_4576 (HIV-1)
[18] = target: HIV-1 Env of pseudovirus 1394C9G1(Rev-) (HIV-1)
[19] = target: HIV-1 Env of pseudovirus 191955_A11 (HIV-1)
[20] = target: HIV-1 Env of pseudovirus ZM214M.PL15 (HIV-1)
[21] = target: HIV-1 Env of pseudovirus 249M B10 (HIV-1)
[22] = target: HIV-1 Env of pseudovirus X1193_c1 (HIV-1)
[23] = target: HIV-1 Env of pseudovirus 1012_11_TC21_3257 (HIV-1)
[24] = target: HIV-1 Env of pseudovirus Ce0393_C3 (HIV-1)
[25] = target: HIV-1 Env of pseudovirus CNE17 (HIV-1)
[26] = target: HIV-1 Env of pseudovirus 231965.c01 (HIV-1)
[27] = target: HIV-1 Env of pseudovirus CNE8 (HIV-1)
[28] = target: HIV-1 Env of pseudovirus 3365.v2.c2 (HIV-1)
[29] = target: HIV-1 Env of pseudovirus R1166.c01 (HIV-1)
[30] = target: HIV-1 Env of pseudovirus 6545.v4.c1 (HIV-1)
[31] = target: HIV-1 Env of pseudovirus 191821_E6_1 (HIV-1)
[32] = target: HIV-1 Env of pseudovirus WITO4160.33 (HIV-1)
[33] = target: HIV-1 Env of pseudovirus Q842.d12 (HIV-1)
[34] = target: HIV-1 Env of pseudovirus Q23.17 (HIV-1)
[35] = target: HIV-1 Env of pseudovirus CAP210.2.00.E8 (HIV-1)
[36] = target: HIV-1 Env of pseudovirus 6240_08_TA5_4622 (HIV-1)
[37] = target: HIV-1 Env of pseudovirus T257-31 (HIV-1)
[38] = target: HIV-1 Env of pseudovirus BJOX025000.01.1 (HIV-1)
[39] = target: HIV-1 Env of pseudovirus 89-F1_2_25 (HIV-1)

B1: 10-1074 (antibody, V domains shown)
VH: QVQLQESGPGLVKPSETLSVTCSVSGDSMNNYYWTWIRQSPGKGLEWIGYISDRESATYNPSLNSRVVISRDTSKNQLSLKLNSVTPADTAVYYCATARRGQRIYGVVSFGEFFYYYSMDVWGKGTTVTVSS
VL: SYVRPLSVALGETARISCGRQALGSRAVQWYQHRPGQAPILLIYNNQDRPSGIPERFSGTPDINFGTRATLTISGVEAGDEADYYCHMWDSRSGFSWSFGGATRLTVL
IC50 in TZM-bl assay [1]: 1.99 µg/mL
IC80 in TZM-bl assay [1]: 9.76 µg/mL
IC50 in TZM-bl assay [2]: 0.008 µg/mL
IC80 in TZM-bl assay [2]: 0.024 µg/mL
IC50 in TZM-bl assay [3]: > 10 µg/mL
IC80 in TZM-bl assay [3]: > 10 µg/mL
IC50 in TZM-bl assay [4]: > 10 µg/mL
IC80 in TZM-bl assay [4]: > 10 µg/mL
IC50 in TZM-bl assay [5]: 0.002 µg/mL
IC80 in TZM-bl assay [5]: 0.006 µg/mL
IC50 in TZM-bl assay [6]: 0.022 µg/mL
IC80 in TZM-bl assay [6]: 0.07 µg/mL
IC50 in TZM-bl assay [7]: 0.023 µg/mL
IC80 in TZM-bl assay [7]: 0.086 µg/mL
IC50 in TZM-bl assay [8]: > 10 µg/mL
IC80 in TZM-bl assay [8]: > 10 µg/mL
IC50 in TZM-bl assay [9]: 0.003 µg/mL
IC80 in TZM-bl assay [9]: 0.01 µg/mL
IC50 in TZM-bl assay [10]: > 10 µg/mL
IC80 in TZM-bl assay [10]: > 10 µg/mL
IC50 in TZM-bl assay [11]: 0.026 µg/mL
IC80 in TZM-bl assay [11]: 0.108 µg/mL
IC50 in TZM-bl assay [12]: > 10 µg/mL
IC80 in TZM-bl assay [12]: > 10 µg/mL
IC50 in TZM-bl assay [13]: > 10 µg/mL
IC80 in TZM-bl assay [13]: > 10 µg/mL
IC50 in TZM-bl assay [14]: 0.017 µg/mL
IC80 in TZM-bl assay [14]: 0.048 µg/mL
IC50 in TZM-bl assay [15]: > 10 µg/mL
IC80 in TZM-bl assay [15]: > 10 µg/mL
IC50 in TZM-bl assay [16]: > 10 µg/mL
IC80 in TZM-bl assay [16]: > 10 µg/mL
IC50 in TZM-bl assay [17]: 0.091 µg/mL
IC80 in TZM-bl assay [17]: 0.38 µg/mL
IC50 in TZM-bl assay [18]: 0.031 µg/mL
IC80 in TZM-bl assay [18]: 0.093 µg/mL
IC50 in TZM-bl assay [19]: > 10 µg/mL
IC80 in TZM-bl assay [19]: > 10 µg/mL
IC50 in TZM-bl assay [20]: 0.415 µg/mL
IC80 in TZM-bl assay [20]: 2.97 µg/mL
IC50 in TZM-bl assay [21]: > 10 µg/mL
IC80 in TZM-bl assay [21]: > 10 µg/mL
IC50 in TZM-bl assay [22]: 0.07 µg/mL
IC80 in TZM-bl assay [22]: 0.207 µg/mL
IC50 in TZM-bl assay [23]: 0.011 µg/mL
IC80 in TZM-bl assay [23]: 0.047 µg/mL
IC50 in TZM-bl assay [24]: > 10 µg/mL
IC80 in TZM-bl assay [24]: > 10 µg/mL
IC50 in TZM-bl assay [25]: 1.18 µg/mL
IC80 in TZM-bl assay [25]: 4.85 µg/mL
IC50 in TZM-bl assay [26]: > 10 µg/mL
IC80 in TZM-bl assay [26]: > 10 µg/mL
IC50 in TZM-bl assay [27]: > 10 µg/mL
IC80 in TZM-bl assay [27]: > 10 µg/mL
IC50 in TZM-bl assay [28]: 0.057 µg/mL
IC80 in TZM-bl assay [28]: 0.2 µg/mL
IC50 in TZM-bl assay [29]: > 10 µg/mL
IC80 in TZM-bl assay [29]: > 10 µg/mL
IC50 in TZM-bl assay [30]: > 10 µg/mL
IC80 in TZM-bl assay [30]: > 10 µg/mL
IC50 in TZM-bl assay [31]: > 10 µg/mL
IC80 in TZM-bl assay [31]: > 10 µg/mL
IC50 in TZM-bl assay [32]: 0.111 µg/mL
IC80 in TZM-bl assay [32]: 0.828 µg/mL
IC50 in TZM-bl assay [33]: > 10 µg/mL
IC80 in TZM-bl assay [33]: > 10 µg/mL
IC50 in TZM-bl assay [34]: 0.005 µg/mL
IC80 in TZM-bl assay [34]: 0.015 µg/mL
IC50 in TZM-bl assay [35]: > 10 µg/mL
IC80 in TZM-bl assay [35]: > 10 µg/mL
IC50 in TZM-bl assay [36]: 0.038 µg/mL
IC80 in TZM-bl assay [36]: 0.131 µg/mL
IC50 in TZM-bl assay [37]: > 10 µg/mL
IC80 in TZM-bl assay [37]: > 10 µg/mL
IC50 in TZM-bl assay [38]: > 10 µg/mL
IC80 in TZM-bl assay [38]: > 10 µg/mL
IC50 in TZM-bl assay [39]: > 10 µg/mL
IC80 in TZM-bl assay [39]: > 10 µg/mL
